Reference: PMC9482650, “Quantitative fragmentomics allow affinity mapping of interactomes” (Nature Communications, 2022)

Legend:
Test in all cases: holdup assay
Set-up in all cases: key: below the threshold = too weak to quantify, mostly under pKd 3.1 to 4
AHNAK1, Q09666 = target: AHNAK1, Q09666
ARHGAP21, Q5T5U3 = target: T1, ARHGAP21, Q5T5U3
T1 sequence (Q5T5U3 45-169, limits assumed, looked up): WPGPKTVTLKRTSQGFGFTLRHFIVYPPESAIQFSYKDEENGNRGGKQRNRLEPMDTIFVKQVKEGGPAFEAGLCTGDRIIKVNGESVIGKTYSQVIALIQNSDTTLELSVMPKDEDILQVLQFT

CARD11, Q9BXL7 = target: T2, CARD11, Q9BXL7
T2 sequence (Q9BXL7 662-765, limits assumed, looked up): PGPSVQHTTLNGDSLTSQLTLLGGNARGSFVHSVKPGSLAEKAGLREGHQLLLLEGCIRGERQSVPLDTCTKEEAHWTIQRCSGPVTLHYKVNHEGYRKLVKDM

GRASP, Q7Z6J2 = target: GRASP, Q7Z6J2
Sequence of GRASP, Q7Z6J2 (Q7Z6J2 96-193): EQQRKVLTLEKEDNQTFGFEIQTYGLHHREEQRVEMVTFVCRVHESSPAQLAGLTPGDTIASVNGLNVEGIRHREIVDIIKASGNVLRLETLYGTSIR

GRID2IP_1, A4D2P6 = target: GRID2IP_1, A4D2P6
Sequence of GRID2IP_1, A4D2P6 (A4D2P6 1-87): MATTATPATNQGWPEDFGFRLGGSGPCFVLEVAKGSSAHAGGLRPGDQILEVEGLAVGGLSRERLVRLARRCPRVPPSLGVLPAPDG

GRIP1_5, Q9Y3R0 = target: T3, GRIP1_5, Q9Y3R0
T3 sequence (Q9Y3R0 568-668, limits assumed, looked up): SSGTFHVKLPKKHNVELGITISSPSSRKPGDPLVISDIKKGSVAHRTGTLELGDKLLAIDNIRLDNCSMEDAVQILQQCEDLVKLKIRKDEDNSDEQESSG

HTRA3, P83110 = target: T4, HTRA3, P83110
T4 sequence (P83110 354-453, limits assumed, looked up): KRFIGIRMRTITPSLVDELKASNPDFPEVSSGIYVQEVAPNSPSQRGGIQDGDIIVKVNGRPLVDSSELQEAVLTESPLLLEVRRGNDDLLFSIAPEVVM

IL16_4, Q14005 = target: IL16_4, Q14005
Sequence of IL16_4, Q14005 (Q14005 1229-1329): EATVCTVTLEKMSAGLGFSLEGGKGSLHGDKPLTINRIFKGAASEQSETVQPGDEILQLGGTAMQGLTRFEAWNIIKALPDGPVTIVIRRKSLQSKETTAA

Inadl_1, Q8NI35 = target: Inadl_1, Q8NI35
Sequence of Inadl_1, Q8NI35 (Q8NI35 113-229): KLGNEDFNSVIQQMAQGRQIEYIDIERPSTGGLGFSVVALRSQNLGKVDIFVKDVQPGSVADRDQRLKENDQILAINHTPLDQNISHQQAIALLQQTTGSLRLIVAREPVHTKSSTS

Inadl_9, Q8NI35 = target: Inadl_9, Q8NI35
Sequence of Inadl_9, Q8NI35 (Q8NI35 1530-1615): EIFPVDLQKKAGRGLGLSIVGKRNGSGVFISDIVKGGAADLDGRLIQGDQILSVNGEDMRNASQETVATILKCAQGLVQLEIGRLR

LIN7A, O14910 = target: T5, LIN7A, O14910
T5 sequence (O14910 103-200, limits assumed, looked up): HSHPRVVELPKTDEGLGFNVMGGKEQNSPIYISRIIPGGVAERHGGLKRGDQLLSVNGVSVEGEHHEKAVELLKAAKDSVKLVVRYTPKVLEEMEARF

LIN7B, Q9HAP6 = target: T6, LIN7B, Q9HAP6
T6 sequence (Q9HAP6 88-185, limits assumed, looked up): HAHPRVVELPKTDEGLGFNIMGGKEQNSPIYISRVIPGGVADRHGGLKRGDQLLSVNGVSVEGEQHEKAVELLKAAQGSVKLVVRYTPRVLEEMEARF

LNX2_3, Q8N448 = target: T7, LNX2_3, Q8N448
T7 sequence (Q8N448 463-564, limits assumed, looked up): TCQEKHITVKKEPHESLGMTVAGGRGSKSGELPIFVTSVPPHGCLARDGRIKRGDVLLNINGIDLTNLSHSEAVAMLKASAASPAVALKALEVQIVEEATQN

LRRC7, Q96NW7 = target: T8, LRRC7, Q96NW7
T8 sequence (Q96NW7 1440-1537, limits assumed, looked up): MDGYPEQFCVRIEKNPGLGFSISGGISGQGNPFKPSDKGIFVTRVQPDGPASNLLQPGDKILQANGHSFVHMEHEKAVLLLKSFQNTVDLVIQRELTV

MAGI1_1, Q96QZ7 = target: MAGI1_1, Q96QZ7
Sequence of MAGI1_1, Q96QZ7 (Q96QZ7 1-106): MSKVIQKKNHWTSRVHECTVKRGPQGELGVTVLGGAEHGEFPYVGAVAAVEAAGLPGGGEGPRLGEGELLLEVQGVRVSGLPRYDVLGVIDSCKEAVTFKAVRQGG

MAGI2_6, Q86UL8 = target: MAGI2_6, Q86UL8
Sequence of MAGI2_6, Q86UL8 (Q86UL8 1141-1229): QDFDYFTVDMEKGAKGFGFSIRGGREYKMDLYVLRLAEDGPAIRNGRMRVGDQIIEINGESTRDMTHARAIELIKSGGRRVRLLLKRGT

MPDZ_5, O75970 = target: T9, MPDZ_5, O75970
T9 sequence (O75970 695-796, limits assumed, looked up): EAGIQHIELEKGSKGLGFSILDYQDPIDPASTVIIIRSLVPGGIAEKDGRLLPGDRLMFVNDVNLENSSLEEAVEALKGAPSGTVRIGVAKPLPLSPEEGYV

NHERF3_4, Q5T2W1 = target: T10, NHERF3_4, Q5T2W1
T10 sequence (Q5T2W1 373-468, limits assumed, looked up): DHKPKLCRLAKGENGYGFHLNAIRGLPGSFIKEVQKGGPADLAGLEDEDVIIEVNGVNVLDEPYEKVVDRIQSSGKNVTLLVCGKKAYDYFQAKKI

PDZRN4_1, Q6ZMN7 = target: PDZRN4_1, Q6ZMN7
Sequence of PDZRN4_1, Q6ZMN7 (Q6ZMN7 213-318): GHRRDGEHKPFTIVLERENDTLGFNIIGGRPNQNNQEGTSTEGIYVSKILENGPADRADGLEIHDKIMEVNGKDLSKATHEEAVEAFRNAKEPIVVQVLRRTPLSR

PICK1, Q9NRD5 = target: PICK1, Q9NRD5
Sequence of PICK1, Q9NRD5 (Q9NRD5 17-115): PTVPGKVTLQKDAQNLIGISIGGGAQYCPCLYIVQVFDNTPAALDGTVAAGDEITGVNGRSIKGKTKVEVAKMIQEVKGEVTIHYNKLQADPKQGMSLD

SNTB1, Q13884 = target: T11, SNTB1, Q13884
T11 sequence (Q13884 107-205, limits assumed, looked up): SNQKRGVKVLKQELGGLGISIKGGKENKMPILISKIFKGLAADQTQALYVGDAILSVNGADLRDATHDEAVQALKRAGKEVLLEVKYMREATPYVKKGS

SNTG1, Q9NSN8 = target: T12, SNTG1, Q9NSN8
T12 sequence (Q9NSN8 52-150, limits assumed, looked up): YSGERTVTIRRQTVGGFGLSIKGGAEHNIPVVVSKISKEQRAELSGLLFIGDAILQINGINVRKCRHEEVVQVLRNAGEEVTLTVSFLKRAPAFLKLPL

TIAM2, Q8IVF5 = target: T13, TIAM2, Q8IVF5
T13 sequence (Q8IVF5 885-986, limits assumed, looked up): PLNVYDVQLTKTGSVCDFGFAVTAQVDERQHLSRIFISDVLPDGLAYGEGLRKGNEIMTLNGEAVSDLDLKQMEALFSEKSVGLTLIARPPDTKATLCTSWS

TJP2_1, Q9UDY2 = target: TJP2_1, Q9UDY2
Sequence of TJP2_1, Q9UDY2 (Q9UDY2 24-128): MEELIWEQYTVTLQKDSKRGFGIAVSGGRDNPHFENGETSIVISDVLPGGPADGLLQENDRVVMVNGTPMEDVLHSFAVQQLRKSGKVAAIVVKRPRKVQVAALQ

[1] = plain residues with an end cap or a label only (N-terminal biotin on a linker: ttds)
[2] = plain residues with an end cap or a label only (N-terminal biotin on a linker: none)

Sequence of AHNAK1, Q09666 (Q09666 4-100): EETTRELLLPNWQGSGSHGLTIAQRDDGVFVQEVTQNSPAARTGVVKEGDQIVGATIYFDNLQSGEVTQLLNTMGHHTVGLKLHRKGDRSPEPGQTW

B1: OTULIN, Q96BN8 (peptide)
chain: PVRVCEETSL
**Q.** B1 was tested. Which pKd (AHNAK1, Q09666; [1]) did it give?
**A.** below the threshold

**Q.** What about the pKd (ARHGAP21, Q5T5U3; [1]) of the same binder?
**A.** 4.2

**Q.** What about the pKd (CARD11, Q9BXL7; [1]) of the same binder?
**A.** 3.59

**Q.** What about the pKd (GRASP, Q7Z6J2; [1]) of the same binder?
**A.** 4.71

**Q.** What about the pKd (GRID2IP_1, A4D2P6; [1]) of the same binder?
**A.** below the threshold

**Q.** What about the pKd (GRIP1_5, Q9Y3R0; [1]) of the same binder?
**A.** 3.78

**Q.** What about the pKd (HTRA3, P83110; [1]) of the same binder?
**A.** below the threshold

**Q.** And the pKd (IL16_4, Q14005; [1])?
**A.** 3.66

**Q.** And the pKd (Inadl_1, Q8NI35; [1])?
**A.** 3.7

**Q.** And the pKd (Inadl_9, Q8NI35; [1])?
**A.** below the threshold

**Q.** And the pKd (LIN7A, O14910; [1])?
**A.** 3.47

**Q.** What about the pKd (LIN7B, Q9HAP6; [1]) of the same binder?
**A.** 3.85

**Q.** And the pKd (LNX2_3, Q8N448; [1])?
**A.** below the threshold

**Q.** And the pKd (LRRC7, Q96NW7; [1])?
**A.** below the threshold

**Q.** And the pKd (MAGI1_1, Q96QZ7; [1])?
**A.** below the threshold

**Q.** And the pKd (MAGI2_6, Q86UL8; [1])?
**A.** 4.06

**Q.** And the pKd (MPDZ_5, O75970; [1])?
**A.** below the threshold

**Q.** And the pKd (NHERF3_4, Q5T2W1; [1])?
**A.** below the threshold

**Q.** What about the pKd (PDZRN4_1, Q6ZMN7; [1]) of the same binder?
**A.** 5.23

**Q.** What about the pKd (PICK1, Q9NRD5; [1]) of the same binder?
**A.** below the threshold

**Q.** And the pKd (SNTB1, Q13884; [1])?
**A.** 4.61

**Q.** What about the pKd (SNTG1, Q9NSN8; [1]) of the same binder?
**A.** 4.28

**Q.** What about the pKd (TIAM2, Q8IVF5; [1]) of the same binder?
**A.** below the threshold

**Q.** What about the pKd (TJP2_1, Q9UDY2; [1]) of the same binder?
**A.** below the threshold

B2: SARS-CoV2-E, P0DTC4 (peptide)
chain: NLNSSRVPDLLV
**Q.** Which results are given for B2?
**A.** pKd (AHNAK1, Q09666; [2]): below the threshold; pKd (ARHGAP21, Q5T5U3; [2]): below the threshold; pKd (CARD11, Q9BXL7; [2]): below the threshold; pKd (GRASP, Q7Z6J2; [2]): below the threshold; pKd (GRID2IP_1, A4D2P6; [2]): below the threshold; pKd (GRIP1_5, Q9Y3R0; [2]): below the threshold; pKd (HTRA3, P83110; [2]): 3.63; pKd (IL16_4, Q14005; [2]): below the threshold; pKd (Inadl_1, Q8NI35; [2]): below the threshold; pKd (Inadl_9, Q8NI35; [2]): below the threshold; pKd (LIN7A, O14910; [2]): below the threshold; pKd (LIN7B, Q9HAP6; [2]): below the threshold; pKd (LNX2_3, Q8N448; [2]): below the threshold; pKd (LRRC7, Q96NW7; [2]): below the threshold; pKd (MAGI1_1, Q96QZ7; [2]): below the threshold; pKd (MAGI2_6, Q86UL8; [2]): below the threshold; pKd (MPDZ_5, O75970; [2]): below the threshold; pKd (NHERF3_4, Q5T2W1; [2]): below the threshold; pKd (PDZRN4_1, Q6ZMN7; [2]): below the threshold; pKd (PICK1, Q9NRD5; [2]): 3.67; pKd (SNTB1, Q13884; [2]): below the threshold; pKd (SNTG1, Q9NSN8; [2]): below the threshold; pKd (TIAM2, Q8IVF5; [2]): below the threshold; pKd (TJP2_1, Q9UDY2; [2]): below the threshold

B3: ACVR2A, P27037 (peptide)
chain: VDFPPKESSL
**Q.** B3 was tested. Which pKd (AHNAK1, Q09666; [1]) did it give?
**A.** below the threshold

**Q.** And the pKd (ARHGAP21, Q5T5U3; [1])?
**A.** below the threshold

**Q.** What about the pKd (CARD11, Q9BXL7; [1]) of the same binder?
**A.** below the threshold

**Q.** What about the pKd (GRASP, Q7Z6J2; [1]) of the same binder?
**A.** 3.47

**Q.** What about the pKd (GRID2IP_1, A4D2P6; [1]) of the same binder?
**A.** below the threshold

**Q.** What about the pKd (GRIP1_5, Q9Y3R0; [1]) of the same binder?
**A.** below the threshold

**Q.** And the pKd (HTRA3, P83110; [1])?
**A.** below the threshold

**Q.** What about the pKd (IL16_4, Q14005; [1]) of the same binder?
**A.** below the threshold

**Q.** And the pKd (Inadl_1, Q8NI35; [1])?
**A.** below the threshold

**Q.** What about the pKd (Inadl_9, Q8NI35; [1]) of the same binder?
**A.** below the threshold

**Q.** And the pKd (LIN7A, O14910; [1])?
**A.** 3.24

**Q.** What about the pKd (LIN7B, Q9HAP6; [1]) of the same binder?
**A.** 3.54

**Q.** What about the pKd (LNX2_3, Q8N448; [1]) of the same binder?
**A.** below the threshold

**Q.** And the pKd (LRRC7, Q96NW7; [1])?
**A.** below the threshold

**Q.** And the pKd (MAGI1_1, Q96QZ7; [1])?
**A.** below the threshold

**Q.** What about the pKd (MAGI2_6, Q86UL8; [1]) of the same binder?
**A.** 3.69

**Q.** And the pKd (MPDZ_5, O75970; [1])?
**A.** below the threshold

**Q.** What about the pKd (NHERF3_4, Q5T2W1; [1]) of the same binder?
**A.** below the threshold

**Q.** And the pKd (PDZRN4_1, Q6ZMN7; [1])?
**A.** 4.7

**Q.** And the pKd (PICK1, Q9NRD5; [1])?
**A.** below the threshold

**Q.** What about the pKd (SNTB1, Q13884; [1]) of the same binder?
**A.** 4.41

**Q.** And the pKd (SNTG1, Q9NSN8; [1])?
**A.** 3.65

**Q.** What about the pKd (TIAM2, Q8IVF5; [1]) of the same binder?
**A.** below the threshold

**Q.** What about the pKd (TJP2_1, Q9UDY2; [1]) of the same binder?
**A.** below the threshold
